Results taken from article PMC11301259, “The crystal structure of methanogen McrD, a methyl‐coenzyme M reductase‐associated protein” (FEBS Open Bio, 2024).

Target: the molecule itself
Assay: crystal structure; McrD at 22 mg/mL crystallised at 4 °C in 0.03 M MgCl2, 0.03 M CaCl2, 0.05 M MES, 0.05 M imidazole pH 6.5, 20% glycerol, 10% PEG 4000, 0.02 M carboxylic acids mix; space group C222(1), two molecules in the asymmetric unit; 1.65 Å; oligomerisation analysis with PISA

B1: Methanomassiliicoccus luminyensis strain B10 McrD (natural protein, UniProt A0AAT8XUI9 1-139, looked up)
chain: MSTDKFEPVPLPEILIFPNRLLSAETTEKLLNRVYDVPHVRQVNISGEGVPAMVGSGPGKGLPVEHEGRKVINVKGREIELQLLVGRVFVEIDDIDVVEKAIEAIDEICQELLPFGYNLEVGRYSKYRPTVTDYKKGKR
notes: McrD of Methanomassiliicoccus luminyensis strain B10, NCBI WP_019176772.1; 139 amino acids; cloned with primers from the start codon to the stop codon; in the crystal residues 1-129/130 are modelled, the C-terminal 10 (monomer A) or 9 (monomer B) residues are disordered; 18 (monomer A) and 9 (monomer B) residues of the plasmid-encoded N-terminal tag are seen in the electron density, so the tag …
  stoichiometry N: 2
